These results are taken from PMC4742251, “The Malarial Exported PFA0660w Is an Hsp40 Co-Chaperone of PfHsp70-x” (PLoS ONE, 2016).

What all share (conditions): both partners purified
For assay [1], the target named is T1, HSPA1A-(His)6 (human, UniProt P0DMV8 1-641).
T1 construct: human Hsp70 (HSPA1A); also called human Hsp70; HSPAIA
Briefly: SPR; Hsp70s amine-coupled to a GLC chip (ProteOn XPR36); BSA, Hsj1a or PFA0660w at 1 μM as analyte in PBST pH 7.4, with and without 1 mM ATP; read qualitatively.

In the next assay the target is (His)6-PfHsp70-x (Plasmodium falciparum). Briefly: SPR; Hsp70s amine-coupled to a GLC chip (ProteOn XPR36); PFA0660w 200-1000 nM as analyte in PBST pH 7.4 with 1 mM ATP; 60 μl/min, 90 s contact, 300 s dissociation; separate fits of association and dissociation, KD calculated from the rate constants.
The next assay addresses T2, (His)6-PfHsp70-1 (Plasmodium falciparum, UniProt Q8IB24 1-677).
T2 construct: PfHsp70-1, parasite-resident Hsp70 of Plasmodium falciparum
The description is as above.

Assay [2] concerns the target T1, HSPA1A-(His)6. The assay is described as above.

T1 sequence (P0DMV8 whole entry): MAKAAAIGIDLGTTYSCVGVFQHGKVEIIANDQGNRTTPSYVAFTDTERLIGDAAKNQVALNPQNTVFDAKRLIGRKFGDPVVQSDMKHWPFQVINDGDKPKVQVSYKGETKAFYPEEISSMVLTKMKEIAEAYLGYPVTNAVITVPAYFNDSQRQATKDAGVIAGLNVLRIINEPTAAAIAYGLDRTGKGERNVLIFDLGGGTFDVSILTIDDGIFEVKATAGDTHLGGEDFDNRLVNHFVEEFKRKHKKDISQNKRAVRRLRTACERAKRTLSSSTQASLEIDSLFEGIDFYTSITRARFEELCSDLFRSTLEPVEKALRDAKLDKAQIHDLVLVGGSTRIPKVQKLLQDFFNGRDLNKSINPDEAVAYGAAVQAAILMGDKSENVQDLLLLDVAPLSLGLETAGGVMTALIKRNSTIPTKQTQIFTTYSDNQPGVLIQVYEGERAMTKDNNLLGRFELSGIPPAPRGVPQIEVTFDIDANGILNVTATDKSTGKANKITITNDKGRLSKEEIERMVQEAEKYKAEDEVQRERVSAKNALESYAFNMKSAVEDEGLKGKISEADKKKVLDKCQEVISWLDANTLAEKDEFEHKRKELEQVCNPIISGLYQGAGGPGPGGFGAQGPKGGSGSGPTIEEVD

B1: (His)6-Hsj1a (natural protein, UniProt P25686-2 1-277, looked up)
chain: MASYYEILDVPRSASADDIKKAYRRKALQWHPDKNPDNKEFAEKKFKEVAEAYEVLSDKHKREIYDRYGREGLTGTGTGPSRAEAGSGGPGFTFTFRSPEEVFREFFGSGDPFAELFDDLGPFSELQNRGSRHSGPFFTFSSSFPGHSDFSSSSFSFSPGAGAFRSVSTSTTFVQGRRITTRRIMENGQERVEVEEDGQLKSVTINGVPDDLALGLELSRREQQPSVTSRSGGTQVQQTPASCPLDSDLSEDEDLQLAMAYSLSEMEAAGKKPADVF
notes: Control Hsp40; also called DNAJB2a
As to B1, in the assay with HSPA1A-(His)6 [1], the binding result is “binds”.

B2: (His)6-PFA0660w (natural protein)
chain: AEGNKNFFFNKDNGVFGKSSMDYYTLLGVDKGCSEDDLRRAYLKLAMKWHPDKHVNKGSKVEAEEKFKNICEAYSVLSDNEKRVKYDLFGMDALKQSGFNSSNFQGNISINPLEVFTKAYSFYNKYFSKSSGAGNHNIFTHIKNLYPLRNDFSEDESSYNDVEEYEVPLYVTLEDLYNGCTKTLKVTRKRYDGCYLYYEDYFINVDIKQGWNNGTKITFHGEGDQSSPDSYPGDLVLVLQTKKHSKFVRKSRDLYYRHIITLEQSLTGFDFVIKSLDNRDIHIQIDEVVKPDTKKVIKNEGMPYSRDPSIRGNLIVEFDIIYPNTIKKEQKKLIKEIFKESY
In general, Kd refers to the free concentration of one partner at which half of the binding sites on the other are occupied at equilibrium, for simple one-to-one binding. As to B2, the equilibrium dissociation constant (Kd) is 37 nM with (His)6-PfHsp70-x, 251 nM with (His)6-PfHsp70-1 and 64 nM in the assay with HSPA1A-(His)6 [2].
